The text below walks through data of paper PMC12273628, “In vitro reconstitution of a minimal human centrosome scaffold capable of forming and clustering microtubule asters” (Journal of Cell Science, 2025).

For assay [1], the target named is GFP::CDK5RAP2 isoform B, full length, wild type (assembled into micron-scale scaffolds with anti-CM2 IgM) (human) (UniProt Q96SN8). Briefly: partitioning into in vitro scaffolds (confocal fluorescence microscopy); 4-component asters: 167 nM GFP::CDK5RAP2, 33 nM mBFP::γ-TuRCs, 33 nM mCherry::HSET, 13 µM HiLyte-647-labeled α/β-tubulin; 50 mM KCl, 25 mM HEPES pH 7.4, IgM+; compared with 3-component reactions without HSET.

Assay [2] addresses T1, GFP::CDK5RAP2 isoform B, full length, wild type (assembled into micron-scale scaffolds with anti-CM2 IgM) (human, UniProt Q96SN8-4 1-1814).
T1 construct: CDK5RAP2 (CEP215) isoform B, human, Protein ID Q96SN8-4, lacking a.a; 1576-1654 of the longest isoform; full length; In the assays the protein stood as micron-scale assemblies nucleated by an anti-CM2 IgM; also called CEP215; GFP::CDK5RAP2(WT); source: SF9 insect cells (baculovirus), purified (MBP selector beads, PreScission cleavage, Ni-NTA to remove the protease)
Kind of assay: partitioning into in vitro scaffolds (confocal fluorescence microscopy); 120 nM GFP::CDK5RAP2 assembled with anti-CM2 IgM, 50 nM mCherry, mCherry::HSET or mCherry::HSET(ΔIDR); 50 mM KCl, 25 mM HEPES; partition coefficient of mCherry signal. Particulars: both partners purified.

T1 sequence (Q96SN8 other isoform, or with tags, fused parts or gaps): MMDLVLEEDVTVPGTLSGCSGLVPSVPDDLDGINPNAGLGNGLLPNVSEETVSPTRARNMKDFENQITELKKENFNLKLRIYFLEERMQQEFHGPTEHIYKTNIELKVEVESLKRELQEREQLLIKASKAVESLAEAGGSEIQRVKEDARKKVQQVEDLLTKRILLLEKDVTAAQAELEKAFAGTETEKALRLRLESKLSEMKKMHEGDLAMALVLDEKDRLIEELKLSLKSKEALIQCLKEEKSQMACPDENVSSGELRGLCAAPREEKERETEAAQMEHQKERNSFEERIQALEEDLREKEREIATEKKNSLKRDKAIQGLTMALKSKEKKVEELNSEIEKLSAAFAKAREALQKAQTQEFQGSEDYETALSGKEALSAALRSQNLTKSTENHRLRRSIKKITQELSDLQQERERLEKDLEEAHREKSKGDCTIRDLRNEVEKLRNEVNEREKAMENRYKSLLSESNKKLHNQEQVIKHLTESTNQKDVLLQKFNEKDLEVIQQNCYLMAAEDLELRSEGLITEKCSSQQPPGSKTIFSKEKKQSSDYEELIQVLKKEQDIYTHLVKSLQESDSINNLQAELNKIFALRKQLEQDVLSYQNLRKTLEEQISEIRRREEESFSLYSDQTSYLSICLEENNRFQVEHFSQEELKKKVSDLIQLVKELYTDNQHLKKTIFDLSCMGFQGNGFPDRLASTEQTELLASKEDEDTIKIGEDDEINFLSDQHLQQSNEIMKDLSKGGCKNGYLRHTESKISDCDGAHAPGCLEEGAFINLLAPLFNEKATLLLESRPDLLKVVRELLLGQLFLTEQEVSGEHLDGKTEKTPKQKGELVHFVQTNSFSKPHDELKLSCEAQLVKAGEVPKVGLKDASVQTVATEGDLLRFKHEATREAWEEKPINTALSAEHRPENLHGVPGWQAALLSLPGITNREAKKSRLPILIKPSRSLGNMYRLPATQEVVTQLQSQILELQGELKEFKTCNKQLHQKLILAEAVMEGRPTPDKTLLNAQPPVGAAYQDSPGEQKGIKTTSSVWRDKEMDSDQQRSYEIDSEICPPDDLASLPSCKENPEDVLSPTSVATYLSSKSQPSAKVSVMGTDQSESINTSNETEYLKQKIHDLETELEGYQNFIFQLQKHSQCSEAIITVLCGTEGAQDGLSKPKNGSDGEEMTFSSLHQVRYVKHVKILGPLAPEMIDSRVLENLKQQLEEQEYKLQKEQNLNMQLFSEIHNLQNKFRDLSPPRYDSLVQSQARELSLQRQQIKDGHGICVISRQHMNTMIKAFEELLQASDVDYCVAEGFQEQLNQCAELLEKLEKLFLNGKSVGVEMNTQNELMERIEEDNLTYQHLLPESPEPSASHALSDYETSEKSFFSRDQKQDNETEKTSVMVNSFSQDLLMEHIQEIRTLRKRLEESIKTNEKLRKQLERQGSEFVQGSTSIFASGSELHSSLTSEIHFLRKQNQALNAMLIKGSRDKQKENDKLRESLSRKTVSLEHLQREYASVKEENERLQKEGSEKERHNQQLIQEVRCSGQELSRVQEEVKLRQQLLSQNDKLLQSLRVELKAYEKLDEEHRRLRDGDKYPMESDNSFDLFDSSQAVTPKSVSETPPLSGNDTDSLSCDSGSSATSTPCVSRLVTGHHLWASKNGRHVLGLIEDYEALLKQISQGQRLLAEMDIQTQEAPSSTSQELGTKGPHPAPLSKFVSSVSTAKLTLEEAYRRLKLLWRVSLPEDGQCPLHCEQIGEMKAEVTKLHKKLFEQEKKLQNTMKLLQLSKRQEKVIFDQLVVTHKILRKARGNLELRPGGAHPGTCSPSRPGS
Sequence of GFP::CDK5RAP2 isoform B, full length, wild type (assembled into micron-scale scaffolds with anti-CM2 IgM) (human) (Q96SN8 other isoform, or with tags, fused parts or gaps): as above

Molecule “human γ-tubulin ring complex tagged with blue fluorescent protein (mBFP::γ-TuRC) (from UniProt P23258 1-451)” yielded a fold more γ-TuRC recruited with mCherry::HSET than without in assay [1] of 1.4 fold.

B1: mCherry::HSET, full length, wild type (natural protein, human, UniProt Q9BW19 1-673, looked up)
chain: MDPQRSPLLEVKGNIELKRPLIKAPSQLPLSGSRLKRRPDQMEDGLEPEKKRTRGLGATTKITTSHPRVPSLTTVPQTQGQTTAQKVSKKTGPRCSTAIATGLKNQKPVPAVPVQKSGTSGVPPMAGGKKPSKRPAWDLKGQLCDLNAELKRCRERTQTLDQENQQLQDQLRDAQQQVKALGTERTTLEGHLAKVQAQAEQGQQELKNLRACVLELEERLSTQEGLVQELQKKQVELQEERRGLMSQLEEKERRLQTSEAALSSSQAEVASLRQETVAQAALLTEREERLHGLEMERRRLHNQLQELKGNIRVFCRVRPVLPGEPTPPPGLLLFPSGPGGPSDPPTRLSLSRSDERRGTLSGAPAPPTRHDFSFDRVFPPGSGQDEVFEEIAMLVQSALDGYPVCIFAYGQTGSGKTFTMEGGPGGDPQLEGLIPRALRHLFSVAQELSGQGWTYSFVASYVEIYNETVRDLLATGTRKGQGGECEIRRAGPGSEELTVTNARYVPVSCEKEVDALLHLARQNRAVARTAQNERSSRSHSVFQLQISGEHSSRGLQCGAPLSLVDLAGSERLDPGLALGPGERERLRETQAINSSLSTLGLVIMALSNKESHVPYRNSKLTYLLQNSLGGSAKMLMFVNISPLEENVSESLNSLRFASKVNQCVIGTAQANRK
notes: HSET (KifC1), kinesin-14 family motor, human, full length; also called KifC1; mCherry::HSET(WT); source: SF9 insect cells (baculovirus), purified (Ni-NTA)
In the case of B1, in assay [2], the binding result is “binds”.
